Here are results for 1 molecule from paper PMC7647061, “Expression, purification and characterization of α-synuclein fibrillar specific scFv from inclusion bodies” (PLoS ONE, 2020).

The target of the assay is full-length α-syn140 fibrils (Homo sapiens (assumed), UniProt P37840). The assay is described as follows: far-Western, overlay or dot blot; dot blot: antigen (monomeric or fibrillar) spotted on nitrocellulose in 5 μl, air-dried, blocked in 5% skimmed milk in PBST; scFv-F 5 μg/mL overnight at 4°C; detected by anti-His and HRP secondary antibody. Conditions: both partners purified.

B1: single-chain variable fragment (scFv-F) antibody (scFv, V domains shown)
VH: DVQLVESGGGLVQPGGSRKLSCAASGFTFSSFGMHWVRQAPEKGLEWVAYISSGSSTIYYADTVKGRFTISRDNPKNTLFLQMTSLRSEDTAMYYCARGNNPGTGYYYAMDYWGQGTSVTVSS
VL: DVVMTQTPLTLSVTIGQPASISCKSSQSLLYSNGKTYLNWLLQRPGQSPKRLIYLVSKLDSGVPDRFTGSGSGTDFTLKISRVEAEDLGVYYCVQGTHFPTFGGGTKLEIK
notes: VL of mouse monoclonal antibody Syn-F2; (Gly4Ser)3 linker, written out from the printed formula; VH of mouse monoclonal antibody Syn-F2; Order VL-(Gly4Ser)3-VH-6xHis; Final construct is in pET28a; the vector may add residues at the N-terminus (the model's residue numbers Tyr215 and Thr269 hint at a chain longer than VL-linker-VH alone); not shown: His6, C-terminal, kept
Turning to B1, the binding result was “binds”.
